The target of experiment [1] is T1, urokinase plasminogen activator receptor (uPAR) (Homo sapiens, UniProt Q03405).
T1 construct: 10^6 Sf9 cells expressing full length uPAR ("fluPAR", day 2 post infection); expressed in transfected cells; host or cells: Sf9 insect cells (baculovirus-infected)
The experiment in a line: Binding of individual phage clones to Sf9 cells expressing fluPAR (% recovery). The conditions noted are these: for % Recovery uPAR: phage clone displaying the peptide, Sf9 cells expressing full length uPAR (fluPAR); for Specificity (uPAR/SPR): ratio of % recovery on uPAR Sf9 cells to % recovery on SPR Sf9 cells. How it is done:
(§1) 1.) 15mer phage (2.5×10^10) prepared as described above were selected by coincubation with 10^6 Sf9 cells expressing full length uPAR ("fluPAR", day 2 post infection) at room temperature for 60 minutes in Grace's medium with 2% nonfat milk. Binding phage were eluted with 6M urea (pH 2.2), the pH neutralized by adding 2M Tris-HCl, and assayed. The yield of binding phage was 0.0013% (3.3×10^5 pfu). The phage were amplified on solid agar plates as plaques, eluted with Tris-buffered saline, and precipitated with polyethylene glycol.
(§2) 3.) The phage selected in round 2 were reselected on Sf9 cells expressing fluPAR (day 2 post-infection) as described for round 1 (2.8×10^10 phage on 10^6 Sf9 cells). The yield of binding phage from this round was 5.40% (1.5×10^9 pfu), indicating a substantial enrichment in binding phage. Phage from the urea eluate were cloned, and the DNA isolated and sequenced. Binding by individual phage clones was assayed against Sf9 cells expressing fluPAR, and Sf9 cells expressing substance P receptor (as a control).

Experiment [2] concerns the target T2, substance P receptor (Homo sapiens, UniProt P25103).
T2 construct: expressed in transfected cells; host or cells: Sf9 insect cells
The experiment in a line: Binding of individual phage clones to Sf9 cells expressing substance P receptor (control). The conditions noted are these: phage clone displaying the peptide. How it is done: as §1, §2

T2 sequence (P25103 whole entry, species assumed): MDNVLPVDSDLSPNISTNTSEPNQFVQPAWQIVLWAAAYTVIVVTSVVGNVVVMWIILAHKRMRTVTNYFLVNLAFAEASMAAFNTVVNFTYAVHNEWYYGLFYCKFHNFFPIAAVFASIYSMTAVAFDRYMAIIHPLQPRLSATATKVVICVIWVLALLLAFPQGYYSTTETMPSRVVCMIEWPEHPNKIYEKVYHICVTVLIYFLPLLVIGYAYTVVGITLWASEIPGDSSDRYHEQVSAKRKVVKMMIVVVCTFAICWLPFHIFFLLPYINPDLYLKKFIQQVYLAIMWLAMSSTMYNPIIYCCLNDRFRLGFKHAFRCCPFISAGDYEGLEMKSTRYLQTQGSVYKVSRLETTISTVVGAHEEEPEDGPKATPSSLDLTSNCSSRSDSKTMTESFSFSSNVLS
T1 sequence (Q03405 23-335, species assumed): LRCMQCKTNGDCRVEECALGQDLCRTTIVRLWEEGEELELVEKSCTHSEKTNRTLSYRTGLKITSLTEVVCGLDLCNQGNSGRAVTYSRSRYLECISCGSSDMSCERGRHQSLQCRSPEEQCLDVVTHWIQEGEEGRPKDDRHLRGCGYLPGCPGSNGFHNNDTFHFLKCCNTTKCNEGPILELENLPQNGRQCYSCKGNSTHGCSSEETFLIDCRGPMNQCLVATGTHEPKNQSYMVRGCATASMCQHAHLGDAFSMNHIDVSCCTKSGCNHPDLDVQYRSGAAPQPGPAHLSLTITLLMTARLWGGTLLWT

For AEPALLNWSFFFNPGLH (displayed on phage), in experiment [1], the “% Recovery uPAR” value is recorded as 4.7% and the “Specificity (uPAR/SPR)” value is given as 47. Also, in experiment [2], the “% Recovery SPR” value is listed as 0.100%.
Take AEPLDLWSLYSLPPLAM (displayed on phage): in experiment [1], the “% Recovery uPAR” value was 6.0% and the “Specificity (uPAR/SPR)” value is reported as 63. Besides, the “% Recovery SPR” value in experiment [2] came to 0.095%.
Take AESSLWTRYAWPSMPSY (displayed on phage): in experiment [1], the “% Recovery uPAR” value is reported as 12.1% and the “Specificity (uPAR/SPR)” value was found to be 47. Also, the “% Recovery SPR” value in experiment [2] turned out to be 0.260%.
Regarding AESQTGTLNTLFWNTLR (displayed on phage), in experiment [1], the “% Recovery uPAR” value turned out to be 2.8% and the “Specificity (uPAR/SPR)” value is 350. Also, the “% Recovery SPR” value in experiment [2] is listed as 0.008%.
The like results for AEWHPGLSFGSYLWSKT (displayed on phage) were, in that order, 5.7%, 168 and 0.034%.
For the sequence “AECLNGGTAVSNKYFSNIHWCN (displayed on phage) [reference compound]”, in experiment [1], the “% Recovery uPAR” value stood at 6.8% and the “Specificity (uPAR/SPR)” value was determined as 850. The “% Recovery SPR” value in experiment [2] is 0.008%.
With AESLPTLTSILWGKESV (displayed on phage), in experiment [1], the “% Recovery uPAR” value was found to be 0.5% and the “Specificity (uPAR/SPR)” value is 23. In addition, the “% Recovery SPR” value in experiment [2] was determined as 0.022%.
On to AEPMPHSLNFSQYLWYT (displayed on phage), for which, in experiment [1], the “% Recovery uPAR” value was found to be 2.2% and the “Specificity (uPAR/SPR)” value worked out at 28. In addition, the “% Recovery SPR” value in experiment [2] is given as 0.080%.
As for AESSLWRIFSPSALMMS (displayed on phage), in experiment [1], the “% Recovery uPAR” value is reported as 3.5% and the “Specificity (uPAR/SPR)” value is 50. Also, the “% Recovery SPR” value in experiment [2] is 0.070%.
Take AEMHRSLWEWYVPNQSA (displayed on phage): in experiment [1], the “% Recovery uPAR” value was 4.2% and the “Specificity (uPAR/SPR)” value is reported as 105. The “% Recovery SPR” value in experiment [2] is 0.040%.

These data come from patent publication US5750344A, “Method for selection of biologically active peptide sequences” (priority 1995, dated 1998).
